Assay: yeast display, Sf9 membrane polyspecificity reagent, FACS + sequencing; frameworks hold sequencing errors
How it was run: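 Polyreactivity labels are assigned by the sorting gate from which each nanobody was recovered. The gates were low and high (top ~1%), set on anti-HA fluorescence for expression and streptavidin fluorescence for reagent binding. Before sorting, galactose-induced (36–48 hours) yeast display cells were stained for 1 hour at 4 °C with 10% biotinylated, detergent-solubilized Sf9 membrane reagent.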
For “QVQLVESGGGLVQAGGSLRLSCAASGSIFSYYAMGWYRQAPGKERELVAVISSSGGRTYYADSVKGRFTISRDNAKNTVYLQMNSLKPEDTAVYYCARERWWGGSDYWGQGTQVTVSS”, the “polyreactivity (PSR sort gate)” value was “high polyreactivity”. With “QVQLVESGGGLVQAGGSLRLSCAASGSIFSYYAMGWYRQAPGKETEVVAAISQNGGSTYYADSVKGRVTISRDNAKNTVYLQMNSLKPEDTAVYYCNAYSVYVRGEYWGQGTQVTVSS” the “polyreactivity (PSR sort gate)” value was “high polyreactivity”. In the case of “QVQLVESGGGLVQAGGSLRLSCAASGSIFSYYAMGWYRQSPGNERELVAAITWSGGSTNYADSVKGRFTISRDNAKNTVYLQMTSLKPEDTAVYYCAADYWAWGKNEYDYWGQGTQVTVSS”, the “polyreactivity (PSR sort gate)” value is reported as “low polyreactivity”. For “QVQLVESGGGLVQAGGSLRLSCAASGSIFSYYVMGWYRQAPGKERELVARINWSSTSTYYADSVKGRFTISRDNAKNTVYLQMHSLKPEDTAVYYCAAAKRYGRYYEYDYWGQGTQVTVSS”, the “polyreactivity (PSR sort gate)” value was “high polyreactivity”. With “QVQLVESGGGLVQAGGSLRLSCAASGSIFTDNAMGWYKQAPGKERELVAVISSGGRTYYADSVKGRFTISRDNAKNTVYLQMNSLKPEDTAVYYCKGQKRYPFSGIEDYWGQGTQVNVSS” the “polyreactivity (PSR sort gate)” value was “high polyreactivity”. In the case of “QVQLVESGGGLVQAGGSLRLSCAASGSIFTDNAMGWYRQAPGKERELVAAITSNGGSTYYADSVKGRFTISRDNAKNTVYLQMNSLKPEDTAVYYCAADSLYREDDYWGQGTQVTVSS”, the “polyreactivity (PSR sort gate)” value is reported as “low polyreactivity”. In the case of “QVQLVESGGGLVQAGGSLRLSCAASGSIFTFYAMGWYRQAPGKERELVATINRIGGNTYYADSVKGRFTISRDNAKNTVYLQMNSLKPEDTAVYYCAKLYGSANGYDYWGQGTQVSVSS”, the “polyreactivity (PSR sort gate)” value is reported as “low polyreactivity”. In the case of “QVQLVESGGGLVQAGGSLRLSCAASGSIFTFYAMGWYRQAPGKERELVATITWLGGSTYADAVKGRFTISRDNAKNTVYLQMNSLKPEDTAVYYCNADYRSYWYKLDYWGQGTQVTVSS”, the “polyreactivity (PSR sort gate)” value is reported as “high polyreactivity”. In the case of “QVQLVESGGGLVQAGGSLRLSCAASGSIFTGYAMGWYRQAPGKERELVAAIRTRGGSTYYADSVKGRFTISRDNAKNTVYLQMNSLKPEDTAVYYCAKRYYGWYGNFDYWGQGTLVTVSS”, the “polyreactivity (PSR sort gate)” value is reported as “high polyreactivity”. With “QVQLVESGGGLVQAGGSLRLSCAASGSIFTGYAMGWYRQARGKESELVAAIDDSGDSTYYADSVKVRFTISRDNATNTVYLQMNSLKPEDTAVYYSKAEYRVNKEYDYWGQGTQVTVSS” the “polyreactivity (PSR sort gate)” value was “low polyreactivity”. With “QVQLVESGGGLVQAGGSLRLSCAASGSIFTGYTMGRYRQATGKERELVAAITWNGGSTYYADSVKGRFTISRDNAKNTVYLQMNSLKPEDTAVYYCAAVPYTPSPYTYGYWGQGTQVTVSS” the “polyreactivity (PSR sort gate)” value was “high polyreactivity”. For “QVQLVESGGGLVQAGGSLRLSCAASGSIFTHNAMGWSRQAPGKERELVATISYGGGRTYYADSVKGRFTISRDNAKNTVYLQMNSLKPEDTAVYYCNALRGGPFRWHGYYYWGQGTQVTVSS”, the “polyreactivity (PSR sort gate)” value was “low polyreactivity”. With “QVQLVESGGGLVQAGGSLRLSCAASGSIFTHNAMGWYRQAHGKERELVAAISSGGSTNYADSVKGRFTISRDNAKNTVYLQMNSLKPEDTAVYYCAKSIDGWYWRRRRYDYWGQGTQVTVSS” the “polyreactivity (PSR sort gate)” value was “low polyreactivity”. For “QVQLVESGGGLVQAGGSLRLSCAASGSIFTHNAMGWYRQAPGKERELVATISYGGGRTYYADSVKGRFTISRDNAKNTVYLQMNSLKPEDTAVYYCAADVYWYAYVWRKYGYWGQGTQVTVSS”, the “polyreactivity (PSR sort gate)” value was “low polyreactivity”. With “QVQLVESGGGLVQAGGSLRLSCAASGSIFTHYAMGWYRQAPGKERELVAAISRRGGSTYYADSVKGRFTISRDNAKNTVYLQMNSLKPEDTAVYYCAVRLYLEMDYWGQGTQVTVSS” the “polyreactivity (PSR sort gate)” value was “high polyreactivity”. For “QVQLVESGGGLVQAGGSLRLSCAASGSIFTHYAMGWYRQAPGKERELVAAITWSGGSTYYADSVKGRFTISRDNAKYTVYLQMNSLKPEDTAVYYCNVAWVGVSLVYGPFEYDYWGQGTQVTVSS”, the “polyreactivity (PSR sort gate)” value was “high polyreactivity”. With “QVQLVESGGGLVQAGGSLRLSCAASGSIFTIYAMGWYRQAPGKERELVAAINRGDGTNYADSVKGRFTISRDNAKNTVYLQMNSLKPEDTAVYYCAAKAYTNYDRQVNLRRYYWGQGTQVTVSS” the “polyreactivity (PSR sort gate)” value was “high polyreactivity”. With “QVQLVESGGGLVQAGGSLRLSCAASGSIFTKYAMGWYRQAPGKERELVAAISKTGGSTYYADSVKGRFTISRDTAKNTVYLQMNSLKPEDTAVYYCNAAGGYSVYKRGRDYWGQGTQVTGSS” the “polyreactivity (PSR sort gate)” value was “high polyreactivity”. In the case of “QVQLVESGGGLVQAGGSLRLSCAASGSIFTKYVMGWYRQAPGKERELVAAITYRGGSTYYADSVKGRFTISRDNAKNTVYLQMNSLKPEDTAVYDCAAEYYRYKYTAYRTDDYWGQGTQVTVSS”, the “polyreactivity (PSR sort gate)” value is reported as “high polyreactivity”. For “QVQLVESGGGLVQAGGSLRLSCAASGSIFTLYAIGWSRQAPGKERELVAAISRRGGSTYYADSVKGRFTISRDNAKNTVYLQMNSLKPEDTAVYYCNAYRSNYLIGSSSYGLDYWGHGTQVTVSS”, the “polyreactivity (PSR sort gate)” value was “high polyreactivity”. In the case of “QVQLVESGGGLVQAGGSLRLSCAASGSIFTLYAMGWYRQAPGKERELVAAIDSGGNTNYADSVKGRFTISRDNAKNTVYLQMNSLKPEDTAVYYCAKRHATEFDYWGQGTQVTVSS”, the “polyreactivity (PSR sort gate)” value is reported as “low polyreactivity”. In the case of “QVQLVESGGGLVQAGGSLRLSCAASGSIFTLYAMGWYRQAPGKERELVAAITWTGGSTYYADSVKGRFTISRDNAKNTVYLQMNSLKPEDTAVYYCATDGYWQSNGAFYYVARHGGYWGQGTQVTVSS”, the “polyreactivity (PSR sort gate)” value is reported as “low polyreactivity”. With “QVQLVESGGGLVQAGGSLRLSCAASGSIFTLYVMGWYRQAPGKERELVAAITWSGGSTYYADSVKGRFTISRDNAKNTVYLQMNSLKTEDPAVYYCNADVRWDSQDYYYWGQGTQVTVSS” the “polyreactivity (PSR sort gate)” value was “low polyreactivity”. For “QVQLVESGGGLVQAGGSLRLSCAASGSIFTNAMGWYIQAPGKERELVAAISSSGGSTYYADSVKGRFTISRDNANNTVYLQMNSLKPEDTAVYYCSADHFGGRDYWGQGTQVTVSS”, the “polyreactivity (PSR sort gate)” value was “low polyreactivity”. For “QVQLVESGGGLVQAGGSLRLSCAASGSIFTNYAMGWYRQAPGKERELVATITYYADSVKGRFTISRDNAKNTVYLQMNSLKPVDTAVYYCAAVRSGPGYDYWGQGTQVTVSS”, the “polyreactivity (PSR sort gate)” value was “low polyreactivity”. In the case of “QVQLVESGGGLVQAGGSLRLSCAASGSIFTPNAMGWYRQAPGKERELVAAISQSGGSTYYADSVKGRFTISRDNAMNTVYLQMNSLKPEDTAVYYCGASVRHRGYDYWGQGTQVTVSS”, the “polyreactivity (PSR sort gate)” value is reported as “high polyreactivity”. In the case of “QVQLVESGGGLVQAGGSLRLSCAASGSIFTPNAMGWYRQAPGKERELVAAISSSSDRTYYADSVKGRFTLSRDNAKNTVYLQMNSLKPEDTAVYYCAAYAQKRYYWGQGTQVTVSS”, the “polyreactivity (PSR sort gate)” value is reported as “high polyreactivity”. With “QVQLVESGGGLVQAGGSLRLSCAASGSIFTPNTMGWYRQAPGKEREFVAAINTSGSTNYADSVKGRFTISRDNAKNTVYLQLNSLKPEDTAVYYCAAGIVVTGYDYWGQGTQVTVSS” the “polyreactivity (PSR sort gate)” value was “low polyreactivity”. With “QVQLVESGGGLVQAGGSLRLSCAASGSIFTPYAMGWYRQAPAKERELVAANTSSGGSTNYPDSVKGRFTISRDKAKSTVYLQMNSLKPEDTAVYYCAADQDLGYPLFDYWGQRTQVTVSS” the “polyreactivity (PSR sort gate)” value was “low polyreactivity”. For “QVQLVESGGGLVQAGGSLRLSCAASGSIFTPYAMGWYRQAPGKERELVAAISRSGGSTYYADSVKGRFTISRDNAKNTVYLQMNSLKPEDTAVYYCAVVVYDIYGYESDYWGQGTQVTVSS”, the “polyreactivity (PSR sort gate)” value was “low polyreactivity”. With “QVQLVESGGGLVQAGGSLRLSCAASGSIFTPYAMGWYRQAPGKERELVATISWSGGRTYYADSVKGRFTISRDNAMYTVYLQMYSLKPEDTAVYYCAARGYSSEYDYWGQGTQVTVSS” the “polyreactivity (PSR sort gate)” value was “high polyreactivity”. In the case of “QVQLVESGGGLVQAGGSLRLSCAASGSIFTPYVMGWYRQAPGKERELVAAISKRGTRTYYADSVTGRFTISRDNAKNTVYFQMNSLKPEDTAVYYCNAAVDYGSEHDYWGQGTQVTVSS”, the “polyreactivity (PSR sort gate)” value is reported as “high polyreactivity”. For “QVQLVESGGGLVQAGGSLRLSCAASGSIFTQYAMGWYREATGKERELVAAITSGGSTYADSVKGRFTISRDNANNTVYLQMNSLKPEDTAVYYCATQYSYRGVTFYYWGQGTQVTVSS”, the “polyreactivity (PSR sort gate)” value was “low polyreactivity”. In the case of “QVQLVESGGGLVQAGGSLRLSCAASGSIFTRNAMGWYRQAPGKERELVAAISRGGGTNYADSVKGRFTISRDNAKNTVYLQMNSLKPEDTAVYYCAARVGYPYPAGYDYWGQGTQVTVSS”, the “polyreactivity (PSR sort gate)” value is reported as “high polyreactivity”. With “QVQLVESGGGLVQAGGSLRLSCAASGSIFTRNAMGWYRQAPGKERELVAAISRGGGTNYADSVKGRFTISRDNAKNTVYLQMNSLKPEDTAVYYCAKGWLPNGIPTYFRPYGLDYWGQGTQVTVSS” the “polyreactivity (PSR sort gate)” value was “high polyreactivity”. With “QVQLVESGGGLVQAGGSLRLSCAASGSIFTRYTMGWCRQAPGKERELVAVISDSSGRTYYADTVKGRFTISRDNGKNTDYLQMNSLKPEDPAVYYCAAEYSDIYEYWGQGTQVTVSS” the “polyreactivity (PSR sort gate)” value was “low polyreactivity”. With “QVQLVESGGGLVQAGGSLRLSCAASGSIFTRYTMGWYRQAPGKERELVAVISDSSGRTYYADSVKGRFTISRDNGKNTVYLQMNSLKPEDTAVYYCAAEYSDIYEYWGQGTQVTVSS” the “polyreactivity (PSR sort gate)” value was “low polyreactivity”. In the case of “QVQLVESGGGLVQAGGSLRLSCAASGSIFTSYAMGWSRQAPGKERELVAAITSGGSTNYADSVKGRFTISRDNAKNTVYLQMNSLKPEDTAVYYCNAKWYWYLTRDAYRYRYTYDYWGQGTQVTVSS”, the “polyreactivity (PSR sort gate)” value is reported as “low polyreactivity”. With “QVQLVESGGGLVQAGGSLRLSCAASGSIFTSYAMGWYRQAPGKERELVAAITSTGGSTYYADSVKGRFTISRENAKNTVYLQMNSLKPEDTAVYYCNADGGTPYDYWGQGTQVTVSS” the “polyreactivity (PSR sort gate)” value was “low polyreactivity”. In the case of “QVQLVESGGGLVQAGGSLRLSCAASGSIFTTNAMGWYRQAPGKERELVAAISSRGTSTYYADSVKGRFTISRDNAKNTVYLQMNSLKPEDTAVYYCPNPYGYWGQGTQVTVSS”, the “polyreactivity (PSR sort gate)” value is reported as “high polyreactivity”. In the case of “QVQLVESGGGLVQAGGSLRLSCAASGSIFTTNAMGWYRQAPGKERELVARIDRAGSTYYADSVKGRFTISRDNAKNTVYLQMNSLKPVDTAVYYCAVEAVLSRPYATKFDYWGQGTQVNVSS”, the “polyreactivity (PSR sort gate)” value is reported as “low polyreactivity”. With “QVQLVESGGGLVQAGGSLRLSCAASGSIFTTNAMGWYRQAPGKERELVSAISSRGGSTYYADSVKGRFTISRDNAKNTVYLQMNSLKPEDTAVYYCAARYRWPIPGTQYEYWGQGTQVTVSS” the “polyreactivity (PSR sort gate)” value was “low polyreactivity”. For “QVQLVESGGGLVQAGGSLRLSCAASGSIFTVYAMGWYRQAPGKERELVAAIRRTGSRTYYADSVKGRFTISRDNAKNTVYLQMNSLKPEDTAVYYCAADGWYDRRSVRLNYWGQGTQVTVSS”, the “polyreactivity (PSR sort gate)” value was “high polyreactivity”.

From the nanobody polyreactivity screen of Harvey et al. (2022)
